This passage reports protein production results from a protein production outcome set (Wang et al. 2014).

A short description of the data set: label from the status in PepcDB records.
As for “MNEFTAVKELSEKLLEDYKTESSFFFASPTRTILAEGEFTTVKHHEIESFPELVQAVLRNAKQAGNPNPIVVGALPFDRRKEVQLIVPEYSRISERLQLDPTNHLEINRNLTFEMTPVPDHEVYMKGVKQGIEKIKDGDLKKIVLSRSLDVKSSGKIDKQKLLRELAEHNKHGYTFAVNLPKDENENSKTLIGASPELLVSRHGMQVISNPLAGSRPRSDDPVEDKRRAEELLSSPKDLHEHAVVVEAVAAALRPYCHTLYVPEKPSVIHSEAMWHLSTEVKGELKNPNTSSLELAIALHPTPAVCGTPMEEAREAIQKIEPFDREFFTGMLGWSDLNGDGEWIVTIRCAEVQENTLRLYAGAGVVAESKPEDELAETSAKFQTMLKALGLNDSSLNEK”, the protein production entry is reported as “not failed”.
For the sequence “MVNPAQARQLDKIRKVNYASNTFELIAKEWLQMKDWAEITKTRRLDMLERVVFPAIGKLPVREITPHHILKILQETAKRGAPTVAAEARRTISSVFELAVATLRADSDPVWPVRKALPALEHHHHHH”, the protein production entry was “failed”.
For the sequence “MVLVTSVRDYINRMLQDISGMKVLILDSETVSNVSIVYSQSELLQKEVFLVEMIDSISVSKESMSHLKAVYFIRPTSDNIQKLRYQLANPRFGEYHLFFSNLLKDTQIHILADSDEQEVVQQVQEYYADFVSGDPYHFTLNMASNHLYMIPAVVDPSGLQRFSDRVVDGIAAVFLALKRRPVIRYQRTSDTAKRIAHETAKLMYQHESALFDFRRTESSPLLLVIDRRDDPVTPLLNQWTYQAMVHELIGLQDNKVDLKSIGSLPKDQQVEVVLSSEQDAFFKSNMYENFGDIGMNIKRMVDDFQQVAKSNQNIQTVEDMARFVDNYPEYKKMQGNVSKHVTLVTEMSKLVEARKLMTVSQTEQDLACNGGQGAAYEAVTDLLNNESVSDIDRLRLVMLYALRYEKENPVQLMQLFNKLASRSPKYKPGLVQFLLKQAGVEKRTGDLFGNRDLLNIARNMARGLKGVENVYTQHQPLLFQTMESITRGRLRDVDYPFVGDHFQQGRPQEVVIFMVGGTTYEESRSVALQNATNSGVRFILGGTAVLNSKRFLKDLEEAQRISRSGSHMV”, the protein production entry was “failed”.
Regarding “MARLILERFLQEHEETPPSKSIINSMLRDPSQIPDGVLANQVYQCIVNDCCYGPLVDCIKHAIGHEHEVLLRDLLLEKNLSFLDEDQLRAKGYDKTPDFILQVPVAVEGHIIHWIESKASFGDECSHHAYLHDQFWSYWNRFGPGLVIYWYGFIQELDCNRERGILLKACFPTNIVTLCHSIA”, the protein production result is listed as “failed”.
For “MLKSGRLNFLKLNINSRLLYSTNPQLTKKVIGIDLGTTNSAVAYIRDSNDKKSATIIENDEGQRTTPSIVAFDVKSSPQNKDQMKTLVGMAAKRQNAINSENTFFATKRLIGRAFNDKEVQRDMAVMPYKIVKCESNGQAYLSTSNGLIQSPSQIASILLKYLKQTSEEYLGEKVNLAVITVPAYFNDSQRQATKDAGKLAGLNVLRVINEPTAAALSFGIDDKRNNGLIAVYDLGGGTFDISILDIEDGVFEVRATNGDTHLGGEDFDNVIVNYIIDTFIHENPEITREEITKNRETMQRLKDVSERAKIDLSHVKKTFIELPFVYKSKHLRVPMTEEELDNMTLSLINRTIPPVKQALKDADIEPEDIDEVILVGGMTRMPKIRSVVKDLFGKSPNSSVNPDETVALGAAIQGGILSGEIKNVLLLDVTPLTLGIETFGGAFSPLIPRNTT” the value was “failed”; for “MIDFNVDSARCTRCGQCVADCPSRIIVMATGEYPSIAPGKEFSCLRCEHCLAVCPEAAISILGFSPDGSTPLKGNLPETDQLETLIAGRRSVRRYCPENLSPELIDKLITVASCAPTGVNARKVRFTVLDDREKTAHFRDEVMERLVRLLEEEALPESKAYYARFVKVWQKHKIDLVFRDAPHLLIATAPKSLSTPRQDCVIALTTFELYAQACGIGTLWNGIATWAIEEMLPEMRQRLGIPDDHAFGYAMLFGKPAVRYARTVQHHPPEIYRVPLEHHHHHH”, “not failed”.
“MIPRCLINQILRLAQASPEREVCGLVGAAAGRRMRCYPVPNVAERPECRFLLDPKGQIDALRAMRERGEELFAIFHSHPTAAAIPSPADLEFAAYPEALHLIVSLGTKGVLEMRGFRIGSSSRPREVELLLAPELEHHHHHH”: the protein production result is recorded as “failed”.
Under “MSLSDDPMASIKLLNLERENSAIAQYQSNIANLKTTLSSQETHLDSVSESLKSMRDIVLWGANGSLTDQDRSGMITELKSYRDSIESSFNAQDEEGHFLFSGTKTDTAALNKSSGAYVVEGNSDVRVVTVAKGVTMDSNMTAQEILDIGGGKNVLNQIDALIAEFEKPSPNFQAEVDASLNAIDDTMANVLGAMTEIGGRHNNLDLMDGAHSENKLFVDKVSGDLSALDYGEGHHHHHH” stands “not failed”.
For “MMEHHKVHTTIQALQAKRKKLLTELAELEAEIKVSSERKSSFNISLSPSLLAEIEEIEYEEKTSKERRINHSVLLSPSFMAKVDEYMKEKGFSNRSLLFEKALEFYMLKHP” the value was “failed”.
For “MSDTPYSLKGPARPTASTRNGKGRQDARWAERRREAAIAKLKAELAAQAALIAGQEVALAHSRKIFDRASVAARIGVWECSLPGEQLHWTDVVYDLFDLPRGAALDRSEIIKCYPAESRKALDSLRSRAIAERSGFTLDAEITTFAGHSRWIRITATVECEADVPVRIFGMKQDITEEKILSDRMRYLAEFDPMTGLANRARFQARLAQPDASRPLGALLLIDLDGFKAVNDTFGHVVGDECLKAAAERLAEGCGEADLVARVGGDEFAVLLGSHLDRAAVSGVAREIIEGMGKPVVVRGQSLRLGASVGIAFAGQGAPCDLFAQADTALYAAKAAGRNTFRIFKAEAGGKDRSAAA”, the protein production result is given as “failed”.
Under “MSHRSPLRRLYPISAGGTAMRRSFAIGLTVLFLGNGAVMLAAPYPWYLAVPGVVLTGPFNDHFVRDVGAAYLACGVATALGAWNLRRHAGAVVVAATFQGLHAMIHLVTPFCGAGAPWLLLARDFPGVFLPTAATIWLAIAAFQPSEGEQK” stands “failed”; under “MSTLISTPRTKMSPIRAEDWALFQRLHIEPSVISLCFDKPDERVLRDKFESRLASWTPECDHWLCLTIFDANTQQPIGITGFVLEEDKAEVGYLLLPEFHGQQFGTETLNALLHWAETTHDILRFSATVTEGNVASERVLTKCGFELSQVIPDAYQIGGKHYADKIYSRQK”, “failed”; under “MSDAAISGRREQGWLAGLGNWIPARFRRDIPVVPVVRLSGTIGAVTPLRPGLTLAGVAKLLDRAFSTRNAKAVALAINSPGGSPVQSRLIYLRIRALAAEKKLPVYAFVEDVAASGGYMIACAADEIYCDPSSILGSIGVVGGGFGFQELIRKIGVERRLYTAGERKAQLDPFLPEDPQEVARLKVLQQEIHALFIALVKESRGTRLKGEESKLFTGEYWAGATSVSLGLADSIGDLRAVLRGKFGDKVRTPLISPPTGLLANLSRKSSGAGASLDGVAALPESMITALETRAIWAKYGF”, “failed”.
Turning to “MSHFVHPNALCESDTIGEGTRVWAFAHVLPGARLGRDCNICDGVFIESDVVVGDRVTVKCGVQLWDGVRLGDDVFVGPNATFTNDLFPRSRVYPEKFLGTVVESGASIGANATILAGTTIGSGAMIGAGAVVTRSVPPNAIVVGNPARIVGYVSDKDATGSAPSPTGQGITDTAVPGVKLYRMPSFADMRGSLSVGDFETFLPFNAKRYFLVYGVPTQETRGEHAHKRCHQFLICVSGSVRVLADDGTRRIDVELNSPSQGIHLPPMIWGTQYKYSKDAVLLVFASESYDTDEYIRDYSDFKSLANAAR”, the protein production entry was “failed”.
On to “MNLTYLFVLIWLAFLISSGVMLFSRGFLLARVSKTETSTCRRLSTNPNAEYVLTDEVVNEIFKDVNASSNLCLPQKSKVIVLVVDALKYEFGLYRANATDPLPYENKLVVLQELLQQNPDHARLMRFRADPPTTTLQRLKGLTTGSLPTFIDIGSNFASPEINEDNIIDQIVKNDLPVVFLGDSTWTDLYPHRFKRSYSYPSFDIFDLDSVDNEILKHLPKELESKDWQVLVAHFLGVDHCGHKHGPMHEEMARKLGEMNEVIRSVVAAMDNDTTLLVMGDHGMTASGDHGGDTDDETNALLFAYSKQHRFYGNDSGSDSEMLQQIDLVPTLATILGVPIPYSNLGLVNFNIVPDLRVPHLNKFQTLLLHSWQNAQQIYRYFFQYALENKRTFNVEQMDHLETEFILLTHRVQTVYNEVAFKSFVRDLNTNLRDILGTCREIWVRFDPTQMSQGLLFTFLPLFFIFLVVNNSRPADFPHIFKAKEVFYVYLINLAAGVFGYRYFKTFSFKTEEQGVIFFTAISSAVILAFHTLRHWTSIATNWSAVKRFGHMPTRLLLFGSMAVFFSNSFVIQEAKILSYLLAAAILLLSHELLRLSARLDFRTKFKASQFLRSTALRLILASVLAICLIRFAYTLFRCREEQGNCSDFVNTGGAGFSLKKPGTGKTYILAVVVLVVYTTLTRLYLRSCGNLTGNLPNVLLARYGPTVASICAGGHILLANSSIKHIQRTHIDAMALVIYGLLLVQIIVLSWAPLMTFVLPPRSSHTVTINGNESIVPEIFRKMKRMYEGDDDERRSHIPVVYGLATVYSSIVIAFGVFLALVMIVLLEPRASIGLVVCVAVGAILLSVHSILRYRTATSFESCVQPTFTALVGWFLLAHFCFFATSHQTTLSQIEWRAAFVGRTTGIGQSNLVSGALVILNTFCGPIFFFCMYSLLSTETFSLFALFPNLIRSCRSGGKVDASTSMSDLANEAVGFDMTRGELSLYEYEDVFLGTGFKLATQFFMLQGLKIFCAMLACTIHCRHLMVWKIFAPRFIYEALATFVSLPALIVGYLLVLRIHRGVDTLIKRINKAKVH”, for which the protein production entry was “failed”.
“MTVWRSWRLLGVSGDSKPTDGPVSRFLNRRIASAIASAIIALNLPLTPNMLSLISFLTAAAAALFIAGGQLLVGGLLVQLSSVLDGVDGIVARRLRAASKAGGFLDTMLDRYADTVIYLALAYAAVATHGLETWAVLTAVLAVSGDIMVSYLHTRGERDAGVHPSLVGPLDSLASRDVRLLIVAVITAAGRPLEAMAAVALLSHAYVAVKSIYLFSLLKSKGV”: the protein production entry was “failed”.
For “MRRITVGPFNRVEGDLEVRLDIDDGVVVSAEVTAPLYRGFEQILEGRPSLDALTLAPRICGICSVSQSMAAVAALRAVDGLHPAPNGLHAANIAHAAENAADHLTHFYVFFMPDFARDSYAAWPWHPAVAERFTATRGTAAREVLPARARLLEIMGLIAGKWPHSLAFQPGGTTRAIGLGERVRLLSIIADFRGFLESIVFGDDLEAVLALRSAAALESWRDGRIGDFARFLAIADDLALDKLGRGATSLMSFGAYQGLEAPLFAAGLYDPATSTPRVLDIDAITEDVSHAWMRDTAAEPALAQTLPDADRPGGYSWCKAPRLDSRPIEVGALARQAVDGDALIRDLVRRHGPNVRTRVIARLLETARLALAMDRWARQIALDAPFLDAAARVGEGAGIGLVEAARGSLGHWIELSGDRIRRYQIIAPTTWNFSPRDADGVAGPLEQALVGTPVGAEGAASVAVQHVVRSFDPCMVCTAH” the value was “failed”; for “MKKYNVDWNYWVVRFLFVMALIVGYLLITNYQHFVHSVSGLLGILSPFITGFVIAYLLSGSQKKIEGLLERVPLPVVKKAKHGLSVLLLYLIILFIFVLTLNYIVPLLISNLVDLANSLPTFYDHMVQFVMSLEDKGILKTAAIEKYLNSVLKDLSPERFLNQWTQALFSLGTLTKNVSSFFLNAFLTLIISIYALVFKQSILTFVEKAAHKLLSEKVYKQTQTWLNTTNKIFYKFISCQFLDACIIGVSSTILLSILNVKFAVTLGILLGICNMIPYFGSIFASIVAGVITLFTGGVTQAITVLLVLLILQQIDGNIIGPRIMGDALNVNPILIIVSITIGGAYFGVLGMFLAVPVAAIIKIIVSEWLNESKENDKIVDSIES”, “failed”.
